From US20210269517A1, “METHOD OF TREATING WASTING DISORDERS” (CSL Limited, priority 2018, published 2021)
Blank lines part the entries; values can stand above or below the molecule they belong to.

Legend:
[1] = tested on: visceral epididymal adipose tissue; assay: Forskolin-stimulated lipolysis in adipose tissue explants in the presence of Atglistatin; assay type: cell-based, mice; details: 5 μM Atglistatin, 10 μM forskolin
Experimental: Male C57BL/6 wild-type mice and aged matched Vegfb^−/− mice (12 weeks old) were subjected to 14 hours of overnight fasting. Animals were sacrificed using carbon dioxide anaesthetics and visceral epididymal adipose tissue was surgically removed, washed in DPBS, and incubated in prewarmed (37° C.) DMEM (Dulbecco's modified Eagle's medium (DMEM, 1 g/l glucose; GIBCO, Life Technologies, Carlsbad, Calif.) until use. For measurements of forskolin-stimulated lipolysis, the adipose tissue pieces (20±5 mg) were pre-incubated in 200 μl DMEM containing 2% BSA (FA-free; Sigma-Aldrich) or 10 μM forskolin (Sigma-Aldrich) in the presence or absence of or 5 μM Atglistatin (Sigma-Aldrich) in 96-well plates at 37° C., 5% CO2, and 95% humidified atmosphere for 60 min. For measurements of basal lipolysis no pre-incubation was performed. Adipose tissue explants were transferred into 200 μl of identical fresh medium and incubated for further 60 min (=period of measurement) at 37° C., 5% CO2, and 95% humidified atmosphere. FA content was determined from the incubation media using a NEFA kit (Wako chemicals). The total amount of protein was measured by transferring the tissue explants into 1 ml extraction solution (Chloroform/methanol (2:1, v/v), 1% glacial acetic acid) and incubated for 60 min at 37° C. under vigorous shaking. […] Protein content of the adipose tissue explant lysates was determined from the lysed solution using BCA reagent kit (Pierce) and BSA as standard. The rate of lipolysis rate was calculated as the amount of NEFAs/mg protein/hrs. […]
Mice carrying the lox-containing gene construct allowing for Cre recombinase-mediated tissue specific ablation of Vegfb (Vegfb Flox+ mice) were generated by Taconic Artemis (Cologne, Germany). […] FA content was determined from the incubation media using a NEFA kit (Wako chemicals). The total amount of protein was measured by transferring the tissue explants into 1 ml extraction solution (Chloroform/methanol (2:1, v/v), 1% glacial acetic acid) and incubated for 60 min at 37° C. under vigorous shaking. […]

VEGF-B [2] = target: T1, VEGF-B (Mus musculus, UniProt P49766); assay: Body weight and blood glucose in chow-fed and overnight-fasted mice treated with anti-VEGF-B antibody; assay type: in vivo, C57BL/6 mice; details: fed or fasted state (14 h overnight); 400 μg i.p. twice weekly, 3 injections; vs isotype control
T1 construct: endogenous in cells; host or cells: C57BL/6 male mice (in vivo)
T1 sequence (P49766 22-207): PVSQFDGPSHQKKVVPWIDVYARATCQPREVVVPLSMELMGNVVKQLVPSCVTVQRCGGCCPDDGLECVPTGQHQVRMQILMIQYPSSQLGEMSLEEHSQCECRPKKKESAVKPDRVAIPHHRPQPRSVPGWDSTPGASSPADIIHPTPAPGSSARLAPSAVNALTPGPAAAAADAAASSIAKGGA
Experimental: Male C57BL/6 wild-type mice and aged matched (12 weeks) Vegfb^+/− and Vegfb^−/− mice were subjected to 14 hours of overnight fasting. Body weight and blood glucose levels were recorded before and after fasting. Body weight drop was calculated as a percentage of weight loss determined by recording body weight in the fasted and fed state. Glucose measurements were performed using a Bayer Contour Glucose meter on blood from the tail vein. Statistical analyses were performed using one-way ANOVA.
(§1) C57BL/6 male mice purchased from Janvier labs and injected with 3 consecutive injections intraperitoneally (i.p.) twice weekly with 400 μg of anti-VEGF-B antibody (2H10) or an isotype matched control antibody. At the age of 12-16 weeks animals were subjected to 14 hours of overnight fasting. Body weight and blood glucose levels were determined as described above.

VEGF-B [3] = target: T1, VEGF-B; assay: Plasma NEFAs, glycerol, triglycerides and insulin in fasting-induced lipolysis; assay type: in vivo, C57BL/6 mice
Experimental: Male C57BL/6 mice and aged matched Vegfb^+/− and Vegfb^−/− (12 weeks old) mice were subjected to 14 hours of overnight fasting. Animals were sacrificed using carbon dioxide anaesthetics and total blood was removed by cardiac puncture. Blood was centrifuged at 14000 rpm, 4° C. for 10 minutes, serum was separated and frozen in aliquots at −80° C. Commercially available kits were used for enzymatic determination of non-esterified fatty acids (NEFAs; Wako Chemicals), glycerol (Abcam), triglycerides (TAGs; Sigma-Aldrich) and insulin (Mercodia). Statistical analyses were performed using one-way ANOVA.
as §1
C57BL/6 male mice were treated with an anti-VEGF-B antibody (2H10) or an isotype matched control antibody as described above. At the age of 12-16 weeks animals were subjected to 14 hours of overnight fasting, sacrificed using carbon dioxide anaesthetics and total blood removed by cardiac puncture and processed as described above. Enzymatic determination of NEFAs (Wako Chemicals) and glycerol (Abcam), triglycerides (Sigma-Aldrich) and insulin (Mercodia) was performed as previously described.

VEGF-B [4] = target: T1, VEGF-B; assay: Ex vivo lipolysis rate in visceral epididymal adipose tissue of antibody-treated mice; design: species or system C57BL/6 mice; details: vs control treated
Experimental: Male C57BL/6 wild-type mice and aged matched Vegfb^−/− mice (12 weeks old) were subjected to 14 hours of overnight fasting. […] FA content was determined from the incubation media using a NEFA kit (Wako chemicals). The total amount of protein was measured by transferring the tissue explants into 1 ml extraction solution (Chloroform/methanol (2:1, v/v), 1% glacial acetic acid) and incubated for 60 min at 37° C. under vigorous shaking. […] Protein content of the adipose tissue explant lysates was determined from the lysed solution using BCA reagent kit (Pierce) and BSA as standard. The rate of lipolysis rate was calculated as the amount of NEFAs/mg protein/hrs. […]
C57BL/6 male mice purchased from Janvier labs and injected with 3 consecutive injections intraperitoneally (i.p.) twice weekly with 400 μg of anti-VEGF-B antibody (2H10) or an isotype matched control antibody. […] Body weight and blood glucose levels were determined as described above.
C57BL/6 male mice were treated with an anti-VEGF-B antibody (2H10) or an isotype matched control antibody as described above. […] Basal and forskolin-stimulated lipolysis was measured as previously described above.

VEGF-B [5] = target: T1, VEGF-B; assay: Hepatic lipid droplet quantification (adipophilin) during fasting-induced lipolysis; assay type: in vivo, C57BL/6 mice; details: vs control treated
Experimental: Male C57BL/6 mice and aged matched (12 weeks) Vegfb^+/− and Vegfb^−/− mice were subjected to 14 hours of overnight fasting. Animals were sacrificed using carbon dioxide anaesthetics and livers and hearts were dissected. For Oil Red 0 (ORO) analysis, liver biopsies were embedded in Tissue-Tek® (Sakura) directly on the mould of the cryostat. Cryo sections (12 μm) were immersed either 5 min (liver) or 8 min (heart) in ORO working solution (2.5 g oil red 0 (Sigma-Aldrich), dissolved in 400 ml 99% isopropanol, further diluted 6:10 in H2O, filtered through a […] filter (Corning). Thereafter the sections were submerged for 3 secs in hematoxylin solution followed by short submerging in LiCO3 (for liver) and rinsed for 10 min under running tap water before they were mounted. Stained sections were examined with bright field microscopy. At least 10 frames per animal within each section were photographed with an Axio Vision microscope (Carl Zeiss) at 20× magnification. The amount of neutral lipids was quantified using Axio Vision Run wizard program for liver or heart ORO staining (pixel^2/μm^2). For measurements of lipid droplets, liver biopsies were fixed in 4% PFA for 24 hours and subsequently processed for paraffin embedding using standard procedures and 4 μm sections were prepared. Antigen retrieval was performed using Antigen retrieval solution Ph6 (Dako #S2367) and heating at 98° C. for 10 min. Sections were incubated at 4° C. overnight with guinea pig anti-adipophilin (Fitzgerald) antibody. […] The amount of lipid droplets was quantified using Axio Vision Run wizard program for hepatic adipophilin+staining (pixel^2/μm^2 or arbitrary units).
C57BL/6 male mice purchased from Janvier labs and injected with 3 consecutive injections intraperitoneally (i.p.) twice weekly with 400 μg of anti-VEGF-B antibody (2H10) or an isotype matched control antibody. […] Body weight and blood glucose levels were determined as described above. […]

[6] = chow-fed mice, vs isotype control
[7] = fasted mice, between treatment groups

Molecule: CN(C)C(=O)Nc1cccc(-c2ccc(N(C)C)cc2)c1 [Atglistatin]
Forskolin-stimulated lipolysis rate ([1]; explants of AdiCre/Vegfb Flox+, WT/WT, WT/Vegfb Flox+ and AdiCre/WT mice): inhibited
Forskolin-stimulated lipolysis ([1]; explants of anti-VEGF-B and control treated C57BL/6 mice): decreased
Forskolin-stimulated lipolysis ([1]; explants of wild-type and Vegfb−/− mice): decreased

Plasma insulin levels (VEGF-B [3]; [6]): significant increase
Plasma levels of NEFAs (VEGF-B [3]; [6]): did not alter
Plasma levels of TAGs (VEGF-B [3]; [6]): did not alter
Plasma levels of glycerol (VEGF-B [3]; [6]): did not alter
Plasma levels of NEFAs (VEGF-B [3]; fasted mice (14 h overnight)): not increased
Plasma levels of glycerol (VEGF-B [3]; fasted mice (14 h overnight)): not increased
Fasting plasma TAG levels (VEGF-B [3]; [7]): No differences
Fasting plasma insulin levels (VEGF-B [3]; [7]): No differences
Forskolin-stimulated lipolysis rate (VEGF-B [4]; 10 μM forskolin): No effect
Basal lipolysis rate (VEGF-B [4]; adipose tissue of fasted mice): significantly reduces
Hepatic lipid accumulation (VEGF-B [5]; fasting conditions (fasting-induced lipolysis)): inhibited
Hepatic lipid accumulation (VEGF-B [5]; fasting conditions (fasting-induced lipolysis), listed as anti-VEGF-B): significantly reduced
Hepatic lipid accumulation (VEGF-B [5]; fed conditions): significantly reduced
B1: 2H10: anti-VEGF-B antibody comprising a VH of SEQ ID NO: 3 and a VL of SEQ ID NO: 4 (antibody, V domains shown)
VH: VQLQQPGTELVKPGASVKLSCKASGYTFTGFWIHWVKQRPGQGLEWIGHINPGNGGTNYNEKFKRMATLTVDKSSSTAYMQLSSLTSEDSAVYYCARSYSNYVRAMDYWGQGTSVTVSS
VL: IQMTQTTSSLSASLGDRVTISCRASQDISNFLNWYQQKPDGTVKLLIYYTSTLHSGVPSRFSGSGSGTDYSLTISNLEQEDIATYFCQQGKTLPPTFGGGTKLEIK
modifications: amino acid sequence from a VH of antibody 2H10; amino acid sequence from a VL of antibody 2H10
Blood glucose levels (VEGF-B [2]): does not Influence
Body weight (VEGF-B [2]): does not Influence
